According to patent US20260242478A1 (published 2026):
Where no end group is shown, it is not given here.

B1: Phage-2251 peptide (SEQ ID NO: 2567) (peptide)
peptide: GTNWCTPAWMCAGF
modifications: cysteine pairing not given here; also: displayed on bacteriophage as fusion to pIII
B2: Phage-2366 (peptide)
peptide: INKWCIPEWMCAAM
notes: Peptide-180 library clone, tested as clonal phage supernatant
B3: Phage-2369 (peptide)
peptide: GLGWCTPTWMCEGF
notes: as for B2
B4: Phage-2361 (peptide)
peptide: ITPWCIPPWMCPGP
notes: as for B2
B5: Phage-2370 (peptide)
peptide: LEKWCIPSWMCSTL
notes: as for B2
B6: Phage-2362 (peptide)
peptide: EEKMCKPSWMCQLF
notes: as for B2
B7: Phage-2363 (peptide)
peptide: AERWCIPDWMCNVI
notes: as for B2
B8: Phage-2372 (peptide)
peptide: QVQWCIPPWMCLED
notes: as for B2
B9: Phage-2364 (peptide)
peptide: GANLCIPPWMCLSS
notes: as for B2
B10: Phage-2365 (peptide)
peptide: AEKLCKPAWMCNNM
notes: as for B2
B11: Phage-2371 (peptide)
peptide: VDKWCIPSWMCEFY
notes: as for B2
B12: Phage-2367 (peptide)
peptide: YEKWCIPAWMCHVA
notes: as for B2
B13: Phage-2360 (peptide)
peptide: EEKWCRPAWMCEHA
notes: as for B2
B14: Phage-2359 (peptide)
peptide: AANWCTPPWMCLGF
notes: as for B2
B15: Phage-2368 (peptide)
peptide: DGVWCVPQWMCDGY
notes: as for B2
B16: Phage-2666 (peptide)
peptide: PPKWCIPAWMCAGM
modifications: cysteine pairing not given here; also: displayed on bacteriophage as fusion to pIII
B17: Phage-2676 (peptide)
peptide: IAKWCTPPWMCADN
modifications: cysteine pairing not given here; also: displayed on bacteriophage as fusion to pIII

biological target: T1, Anti-PSMA Fab (SEQ ID NOs: 19, 20); experiment: phage binding ELISA; PSMA Fab on plate pre-incubated with PSMA antigen as competitor, anti-M13 HRP detection;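 note: crude clonal phage supernatants added without washing to wells preincubated with PSMA in blocking buffer, compared with wells receiving blocking buffer only, then bound phage detected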
T1 construct: Biotinylated and captured on neutravidin-coated plates in the phage ELISA; also called 006 PSMA Fab
Method: (§1) Clonal phage were harvested as crude supernatants and screened via standard ELISAs. […] Prior to the addition of clonal phage. wells were incubated with blocking buffer and PSMA antigen or blocking buffer alone. Without washing or aspirating, clonal phage supernatants were then added to the wells and incubated for a short time. Wells were then washed followed by detection of bound phage using a horse radish conjugated anti-M13 antibody.

| Binder | Anti-PSMA Fab signal in the presence of PSMA |
| --- | --- |
| ADKWCIPEWMCQQD [Phage-2252 peptide (SEQ ID NO: 2568)] | 0.0665 |
| B1 | 0.061 |

biological target: T2, PSMA Fab; experiment: phage ELISA; biotinylated PSMA Fab on neutravidin plate pre-incubated with PSMA antigen as competitor, anti-M13 HRP detection;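 note: crude clonal phage supernatants tested, compared against control wells pre-incubated with blocking buffer only, without PSMA antigen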
T2 construct: also called Anti-PSMA Fab; 006 PSMA Fab
Method: as §1

| Binder | Phage binding ELISA signal, Anti-PSMA Fab in the presence of PSMA antigen |
| --- | --- |
| B2 | 0.0668 |
| B3 | 0.0727 |
| B4 | 0.0746 |
| B5 | 0.0829 |
| B6 | 0.09 |
| B7 | 0.0567 |
| B8 | 0.0887 |
| B9 | 0.0789 |
| B10 | 0.0752 |
| B11 | 0.0767 |
| B12 | 0.0747 |
| B13 | 0.0625 |
| B14 | 0.0888 |
| B15 | 0.0722 |

biological target: T3, PSMA Fab; experiment: clonal phage ELISA; biotinylated PSMA Fab on neutravidin plate; wells pre-incubated with PSMA antigen as competitor; anti-M13-HRP detection
T3 construct: also called Anti-PSMA Fab; 006 PSMA Fab
Method: as §1

| Binder | Phage binding ELISA signal, Anti-PSMA Fab with PSMA antigen |
| --- | --- |
| SVHECRPLWMCQGF [Phage-2455] | 0.073 |
| PVKLCKPDWMCWVS [Phage-2464] | 0.105 |
| WDHLCKPRWMCDGI (cysteine pairing not given here; also: displayed as fusion to phage pIII) [Phage-2451] | 0.0744 |
| EMKWCTPPWMCTEL [Phage-2460] | 0.0656 |
| DTNWCRPAWMCAFA (cysteine pairing not given here; also: displayed as fusion to phage pIII) [Phage-2458] | 0.0649 |
| SVKMCIPEWMCENI [Phage-2452] | 0.0646 |
| DEIWCIPRWMCDGI [Phage-2462] | 0.0834 |
| TQMWCIPFWMCEVQ [Phage-2459] | 0.0885 |
| VETWCIPHWMCAGF (cysteine pairing not given here; also: displayed as fusion to phage pIII) [Phage-2453] | 0.0685 |
| VMKWCTPQWMCEHL [Phage-2465] | 0.068 |
| DGKWCIPEWMCAQQ (cysteine pairing not given here; also: displayed as fusion to phage pIII) [Phage-2463] | 0.0837 |
| VEILCKPAWMCRLD [Phage-2457] | 0.062 |
| GEKWCIPSWMCVAV [Phage-2456] | 0.0549 |
| SVKLCIPDWMCVSE [Phage-2461] | 0.203 |

biological target: T4, PSMA Fab (biotinylated (site not stated)); experiment: clonal phage ELISA; biotinylated PSMA Fab on neutravidin plate, blocking buffer alone, anti-M13-HRP detection;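 note: crude clonal phage supernatants added without washing to wells preincubated with PSMA antigen or with blocking buffer alone, briefly incubated, then washed before bound phage detection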
T4 construct: also called Anti-PSMA Fab; 006 PSMA Fab

| Binder | Phage binding ELISA signal, Anti-PSMA Fab |
| --- | --- |
| EEKWCIPYWMCEAV [Phage-2669] | 0.885 |
| AGKLCIPNWMCEEQ [Phage-2670] | 0.884 |
| B16 | 0.895 |
| LDMLCIPAWMCEPR [Phage-2674] | 0.877 |
| ITKLCTPPWMCMDV [Phage-2668] | 0.886 |
| DWKWCTPAWMCTQT [Phage-2673] | 0.877 |
| EHKWCIPDWMCWED [Phage-2675] | 0.876 |
| SGNWCTPSWMCTGF [Phage-2677] | 0.874 |
| QEKWCIPEWMCSVR [Phage-2672] | 0.879 |
| WDNWCTPSWMCSEL [Phage-2671] | 0.883 |
| B17 | 0.876 |
| VTNWCIPEWMCNGN [Phage-2667] | 0.894 |

biological target: T1, Anti-PSMA Fab (SEQ ID NOs: 19, 20); experiment: phage binding ELISA; biotinylated PSMA Fab on neutravidin plate, clonal phage supernatant, anti-M13 HRP detection;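 note: wells were preincubated with blocking buffer either containing PSMA antigen or without it before crude phage supernatant was added, briefly incubated, then washed prior to detection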
Method: as §1

| Binder | Anti-PSMA Fab (SEQ ID NOs: 19, 20) signal |
| --- | --- |
| ADKWCIPEWMCQQD [Phage-2252 peptide (SEQ ID NO: 2568)] | 1.55 |
| B1 | 1.55 |

biological target: T3, PSMA Fab; experiment: clonal phage ELISA; biotinylated PSMA Fab on neutravidin plate; anti-M13-HRP detection; no PSMA antigen
Method: as §1

| Binder | Phage binding ELISA signal, Anti-PSMA Fab |
| --- | --- |
| SVHECRPLWMCQGF [Phage-2455] | 1.27 |
| PVKLCKPDWMCWVS [Phage-2464] | 1.25 |
| WDHLCKPRWMCDGI (cysteine pairing not given here; also: displayed as fusion to phage pIII) [Phage-2451] | 1.28 |
| EMKWCTPPWMCTEL [Phage-2460] | 1.26 |
| DTNWCRPAWMCAFA (cysteine pairing not given here; also: displayed as fusion to phage pIII) [Phage-2458] | 1.27 |
| SVKMCIPEWMCENI [Phage-2452] | 1.28 |
| DEIWCIPRWMCDGI [Phage-2462] | 1.25 |
| TQMWCIPFWMCEVQ [Phage-2459] | 1.27 |
| VETWCIPHWMCAGF (cysteine pairing not given here; also: displayed as fusion to phage pIII) [Phage-2453] | 1.27 |
| VMKWCTPQWMCEHL [Phage-2465] | 1.25 |
| DGKWCIPEWMCAQQ (cysteine pairing not given here; also: displayed as fusion to phage pIII) [Phage-2463] | 1.25 |
| VEILCKPAWMCRLD [Phage-2457] | 1.27 |
| GEKWCIPSWMCVAV [Phage-2456] | 1.27 |
| SVKLCIPDWMCVSE [Phage-2461] | 1.26 |

biological target: T4, PSMA Fab; experiment: clonal phage ELISA; biotinylated PSMA Fab on neutravidin plate, wells pre-incubated with PSMA antigen as competitor, anti-M13-HRP detection
Method: as §1

| Binder | Phage binding ELISA signal, Anti-PSMA Fab |
| --- | --- |
| EEKWCIPYWMCEAV [Phage-2669] | 0.0691 |
| AGKLCIPNWMCEEQ [Phage-2670] | 0.0913 |
| B16 | 0.0794 |
| LDMLCIPAWMCEPR [Phage-2674] | 0.0925 |
| ITKLCTPPWMCMDV [Phage-2668] | 0.0571 |
| DWKWCTPAWMCTQT [Phage-2673] | 0.0698 |
| EHKWCIPDWMCWED [Phage-2675] | 0.0562 |
| SGNWCTPSWMCTGF [Phage-2677] | 0.062 |
| QEKWCIPEWMCSVR [Phage-2672] | 0.0823 |
| WDNWCTPSWMCSEL [Phage-2671] | 0.0853 |
| B17 | 0.079 |
| VTNWCIPEWMCNGN [Phage-2667] | 0.0615 |

biological target: T2, PSMA Fab; experiment: phage ELISA; biotinylated PSMA Fab on neutravidin plate, clonal phage supernatant, anti-M13 HRP detection, blocking buffer alone
Method: as §1

| Binder | Phage binding ELISA signal, Anti-PSMA Fab |
| --- | --- |
| B2 | 1.41 |
| B3 | 1.4 |
| B4 | 1.42 |
| B5 | 1.4 |
| B6 | 1.41 |
| B7 | 1.41 |
| B8 | 1.4 |
| B9 | 1.41 |
| B10 | 1.41 |
| B11 | 1.4 |
| B12 | 1.41 |
| B13 | 1.42 |
| B14 | 1.42 |
| B15 | 1.4 |
